Laboratory results published in patent US8541373B2, “BChE albumin fusions for the treatment of cocaine abuse” (priority 2009, dated 2013).
Several values for one entry are separate records, joined by “and”; a condition that tells them apart may be missing. Identical values can stand only once.

Assay: AlbuBChE serum pharmacokinetics after single IM dose (ELISA)
Protocol: The study included a total of 11 naïve, adult male cynomolgus monkeys divided into four dose groups: • a control group of two cynomologus monkeys that only received a single IV dose of cocaine; • three dose groups that were treated with a single IM dose of AlbuBChE at 0.2, 1 or 5 mg/kg. Three naïve, adult male cynomolgus monkeys were used in each dose group. Following AlbuBChE treatment, a 1 mg/kg IV dose of cocaine was administered at 2, 48, 96, 120, and 240 hours after AlbuBChE dose administration.
A single intramuscular (IM) administration of AlbuBChE was administered on study day 1 and blood was collected at the time points outlined in Table 2. Approximately 0.5 mL of whole blood was collected from the femoral vein into serum separate tubes (SST).
Blocking is done with 2% Casein in 1×PBS, 200 μL/well, 2 hours at room temperature. After washing, 100 μL of diluted serum samples are added to the plates along with standards. Standards are generated through 3.64 fold, serial dilution of AlbuBChE from 2000 to 3.1 ng/mL. Serum samples and standards are maintained at 10% serum by dilution with buffer containing pooled cynomolgus monkey serum. A wash step precedes detection with 100 μL of anti-HSA mAb-6502-HRP at 0.04 μg/mL for 1 hour. Wells are washed again, prior to developing with 100 μl of TMB substrate. After 15 minutes, the reaction is terminated with 100 μL/well of 1N H2SO4 and read on SpectraMax plate reader at 450/570 nm. Values for unknown serum samples are calculated by interpolation of standard curve generated by 4-parameter fit of AlbuBChE standards. The limit of quantitation in cynomolgus serum was 21.1 ng/mL.
AlbuBChE pharmacokinetic parameter values were determined using serum concentration-time profiles for individual animals. The computer software WinNonlin Professional (Version 4.0.1 Pharsight Corporation, USA) was used. Specifically the model for non-compartmental analysis with extravascular input was applied. If there were fewer than 3 data points in the terminal phase of the serum concentration curve, a terminal phase half-life and PK parameters derived from the half-life were not calculated for that profile. Parameters analyzed include tmax, Cmax, t1/2, AUC(0-t) and AUC(0-∞) were calculated.

AlbuBChE
AUC % Extrap, individual animals (0.2 mg/kg IM): 19.3% and 18.8% and 14.1% | AUC(0-t), individual animals (0.2 mg/kg IM): 2746 ng·h/mL and 7878 ng·h/mL and 8479 ng·h/mL | AUC(0-∞), individual animals (0.2 mg/kg IM): 3404 ng·h/mL and 9704 ng·h/mL and 9867 ng·h/mL | Cmax, individual animals (0.2 mg/kg IM): 176 ng/mL and 279 ng/mL and 281 ng/mL | Dose Normalized AUC(0-∞) (0.2 mg/kg IM): 38292 | Dose Normalized Cmax (0.2 mg/kg IM): 1226 | Mean AUC % Extrap (0.2 mg/kg IM): 17.4% | Mean AUC(0-t) (0.2 mg/kg IM): 6368 ng·h/mL | Mean AUC(0-∞) (0.2 mg/kg IM): 7658 ng·h/mL | Mean Cmax (0.2 mg/kg IM): 245 ng/mL | Mean t½ (0.2 mg/kg IM): 27.2 h | Tmax, individual animals (0.2 mg/kg IM): 3 h | t½, individual animals (0.2 mg/kg IM): 15.3 h and 42.1 h and 24.4 h | AlbuBChE serum concentration, individual animals (0.2 mg/kg IM, 1 hr post dose): 37.1 ng/mL and 235.4 ng/mL and 111.0 ng/mL | Mean AlbuBChE serum concentration (0.2 mg/kg IM, 1 hr post dose): 128 ng/mL | AlbuBChE serum concentration, individual animals (0.2 mg/kg IM, 3 hr post dose): 176.1 ng/mL and 278.5 ng/mL and 280.7 ng/mL | Mean AlbuBChE serum concentration (0.2 mg/kg IM, 3 hr post dose): 245 ng/mL | AlbuBChE serum concentration, individual animals (0.2 mg/kg IM, 6 hr post dose): 144.0 ng/mL and 212.1 ng/mL and 272.4 ng/mL | Mean AlbuBChE serum concentration (0.2 mg/kg IM, 6 hr post dose): 210 ng/mL | AlbuBChE serum concentration, individual animals (0.2 mg/kg IM, 12 hr post dose): 88.4 ng/mL and 143.1 ng/mL and 197.9 ng/mL | Mean AlbuBChE serum concentration (0.2 mg/kg IM, 12 hr post dose): 143 ng/mL | AlbuBChE serum concentration, individual animals (0.2 mg/kg IM, 24 hr post dose): 52.3 ng/mL and 95.2 ng/mL and 135.7 ng/mL | Mean AlbuBChE serum concentration (0.2 mg/kg IM, 24 hr post dose): 94.4 ng/mL | AlbuBChE serum concentration, individual animals (0.2 mg/kg IM, 36 hr post dose): 29.8 ng/mL and 68.3 ng/mL and 87.4 ng/mL | Mean AlbuBChE serum concentration (0.2 mg/kg IM, 36 hr post dose): 61.8 ng/mL | AlbuBChE serum concentration, individual animals (0.2 mg/kg IM, 48 hr post dose): <LLOQ and 66.4 ng/mL and 80.7 ng/mL | Mean AlbuBChE serum concentration (0.2 mg/kg IM, 48 hr post dose): 73.6 ng/mL | AlbuBChE serum concentration, individual animals (0.2 mg/kg IM, 72 hr post dose): <LLOQ and 44.5 ng/mL and 39.5 ng/mL | Mean AlbuBChE serum concentration (0.2 mg/kg IM, 72 hr post dose): 42.0 ng/mL | AlbuBChE serum concentration, individual animals (0.2 mg/kg IM, 96 hr post dose): <LLOQ (2×) and 30.1 ng/mL | Mean AlbuBChE serum concentration (0.2 mg/kg IM, 96 hr post dose): <LLOQ | AlbuBChE serum concentration, individual animals (0.2 mg/kg IM, 128 hr post dose): <LLOQ | Mean AlbuBChE serum concentration (0.2 mg/kg IM, 128 hr post dose): <LLOQ | AlbuBChE serum concentration, individual animals (0.2 mg/kg IM, 144 hr post dose): <LLOQ | Mean AlbuBChE serum concentration (0.2 mg/kg IM, 144 hr post dose): <LLOQ | AlbuBChE serum concentration, individual animals (0.2 mg/kg IM, 168 hr post dose): <LLOQ | Mean AlbuBChE serum concentration (0.2 mg/kg IM, 168 hr post dose): <LLOQ | AlbuBChE serum concentration, individual animals (0.2 mg/kg IM, 216 hr post dose): <LLOQ | Mean AlbuBChE serum concentration (0.2 mg/kg IM, 216 hr post dose): <LLOQ | AlbuBChE serum concentration, individual animals (0.2 mg/kg IM, 264 hr post dose): <LLOQ | Mean AlbuBChE serum concentration (0.2 mg/kg IM, 264 hr post dose): <LLOQ | tmax (0.2 mg/kg IM, group value): 3 h | AUC % Extrap, individual animals (1 mg/kg IM): 2.54% and 3.67% and 2.90% | AUC(0-t), individual animals (1 mg/kg IM): 43128 ng·h/mL and 51298 ng·h/mL and 46185 ng·h/mL | AUC(0-∞), individual animals (1 mg/kg IM): 44251 ng·h/mL and 53255 ng·h/mL and 47564 ng·h/mL | Cmax, individual animals (1 mg/kg IM): 1666 ng/mL and 1374 ng/mL and 1956 ng/mL | Tmax, individual animals (1 mg/kg IM): 3 h | t½, individual animals (1 mg/kg IM): 28.4 h and 34.3 h and 30.3 h | Dose Normalized AUC(0-∞) (1.0 mg/kg IM): 48357 | Dose Normalized Cmax (1.0 mg/kg IM): 1665 | Mean AUC % Extrap (1.0 mg/kg IM): 3.04% | Mean AUC(0-t) (1.0 mg/kg IM): 46871 ng·h/mL | Mean AUC(0-∞) (1.0 mg/kg IM): 48357 ng·h/mL | Mean Cmax (1.0 mg/kg IM): 1665 ng/mL | Mean t½ (1.0 mg/kg IM): 31 h | AlbuBChE serum concentration, individual animals (1.0 mg/kg IM, 1 hr post dose): 1058.9 ng/mL and 462.4 ng/mL and 1598.6 ng/mL | Mean AlbuBChE serum concentration (1.0 mg/kg IM, 1 hr post dose): 1040 ng/mL | AlbuBChE serum concentration, individual animals (1.0 mg/kg IM, 3 hr post dose): 1665.5 ng/mL and 1374.0 ng/mL and 1956.0 ng/mL | Mean AlbuBChE serum concentration (1.0 mg/kg IM, 3 hr post dose): 1665 ng/mL | AlbuBChE serum concentration, individual animals (1.0 mg/kg IM, 6 hr post dose): 1269.3 ng/mL and 1266.3 ng/mL and 1596.1 ng/mL | Mean AlbuBChE serum concentration (1.0 mg/kg IM, 6 hr post dose): 1377 ng/mL | AlbuBChE serum concentration, individual animals (1.0 mg/kg IM, 12 hr post dose): 884.3 ng/mL and 968.1 ng/mL and 1049.5 ng/mL | Mean AlbuBChE serum concentration (1.0 mg/kg IM, 12 hr post dose): 967 ng/mL
